According to patent US20080319173A1:

Biological target: PSGL-1/mIgG2b produced in CHO cells with FUT2 (Se gene) and α1,3 GalNAcT (A gene) (mouse)
Experiment: western blot, chemiluminescence volumes (Fluor-S Max MultImager), anti-A signal divided by anti-mIgG signal

mouse anti-human blood group A all types (mIgM, Dako) (antibody)
relative A epitope density (ratio of blood group A to mIgG reactivity), fold over PSGL-1/mIgG2b made in 293T cells with FUT2 and the A gene: 3 fold
